Source: US20110076723A1, “ANTIBODY-PEPTIDE FUSED SYNERGIBODY” (SAMSUNG ELECTRONICS CO., LTD., priority 2008, published 2011)
Where a SMILES comes first, the peptide text is derived from it. Bridges are numbered along the chain shown (N, C = ends).

B1: Syn-Ang-VEGFR-11: fused protein synergibody SAITAng-2-3 × DTN6VEGFR-2-1, peptide at C-terminal of heavy chain (protein)
heavy (part 1 of 2): DVQLVESGGGLVQPGGSRKLSCAASGFTFSSFGMHWVRQAPEKGLEWVAYISSDSSTIYYADTVKGRFTISRDNPKNTLFLQMTSLRSEDTAMYYCAREGGYDDYYAMDYWGQGTSVTVSS
heavy (part 2 of 2): TGSDDLCYTFPCMHY
light: DIQMTQSPASQSASLGESVTITCLASQTIGTWLAWYQQKPGKSPQLLIYAATSLADGVPSRFSGSGSGTKFSFKISSLQAEDFVSYYCQQLYSIPLTFGGGTKLEIK
modifications: left off: a dimerising Fc or GST
notes: fused protein synergibody SAITAng-2-3 × DTN6VEGFR-2-1, peptide at C-terminal of heavy chain
B2: Syn-Ang-VEGFR-14: fused protein synergibody SAITAng-2-3 × DTN10VEGFR-2-4, peptide at C-terminal of heavy chain (protein)
heavy (part 1 of 2): B1 heavy (part 1 of 2)
heavy (part 2 of 2): TGSGRMCDGSGPPTNCWFT
light: B1 light
modifications: left off: a dimerising Fc or GST
notes: fused protein synergibody SAITAng-2-3 × DTN10VEGFR-2-4, peptide at C-terminal of heavy chain
B3: Syn-Ang-VEGFR-13: fused protein synergibody SAITAng-2-3 × DTN9VEGFR-2-3, peptide at C-terminal of heavy chain (protein)
heavy (part 1 of 2): B1 heavy (part 1 of 2)
heavy (part 2 of 2): EAGAYWCKAWGLSPCLVT
light: B1 light
modifications: left off: a dimerising Fc or GST
notes: fused protein synergibody SAITAng-2-3 × DTN9VEGFR-2-3, peptide at C-terminal of heavy chain
B4: Syn-Ang-VEGFR-12: fused protein synergibody SAITAng-2-3 × DTN8VEGFR-2-2, peptide at C-terminal of heavy chain (protein)
heavy (part 1 of 2): B1 heavy (part 1 of 2)
heavy (part 2 of 2): EAGKETCGYEWQYCPRP
light: B1 light
modifications: left off: a dimerising Fc or GST
notes: fused protein synergibody SAITAng-2-3 × DTN8VEGFR-2-2, peptide at C-terminal of heavy chain
B5: Syn-Ang-VEGFR-6: fused protein synergibody SAITAng-2-2 × DTN6VEGFR-2-1, peptide at C-terminal of heavy chain (protein)
heavy (part 1 of 2): QVQLQQSGPELVKPGASVKMSCKASGYTFTDYVISWVKQRTGQGLEWIGEIYPGSGSTYYNEKFKGKASLTADKSSNTAYMQLSSLTSADSAVYFCVRSRGDYYAMDYWGQGTSVTVSS
heavy (part 2 of 2): TGSDDLCYTFPCMHY
light: DIQMTQSPSSLSASLGGKVTITCKASQDINNYITWYQHKPGKGPRLLIHYTSTLQPGIPSRFSGSGSGRDYSFSISNLEPEDIATYYCLQYDNLLTFGGGTKLEIK
modifications: left off: a dimerising Fc or GST
notes: fused protein synergibody SAITAng-2-2 × DTN6VEGFR-2-1, peptide at C-terminal of heavy chain
B6: Syn-Ang-VEGFR-10: fused protein synergibody SAITAng-2-2 × DTN11VEGFR-2-5, peptide at C-terminal of heavy chain (protein)
heavy (part 1 of 2): B5 heavy (part 1 of 2)
heavy (part 2 of 2): PGSQGYCHLNMRYQWICDSE
light: B5 light
modifications: left off: a dimerising Fc or GST
notes: fused protein synergibody SAITAng-2-2 × DTN11VEGFR-2-5, peptide at C-terminal of heavy chain
B7: Syn-Ang-VEGFR-7: fused protein synergibody SAITAng-2-2 × DTN8VEGFR-2-2, peptide at C-terminal of heavy chain (protein)
heavy (part 1 of 2): B5 heavy (part 1 of 2)
heavy (part 2 of 2): EAGKETCGYEWQYCPRP
light: B5 light
modifications: left off: a dimerising Fc or GST
notes: fused protein synergibody SAITAng-2-2 × DTN8VEGFR-2-2, peptide at C-terminal of heavy chain
B8: Syn-Ang-VEGFR-8: fused protein synergibody SAITAng-2-2 × DTN9VEGFR-2-3, peptide at C-terminal of heavy chain (protein)
heavy (part 1 of 2): B5 heavy (part 1 of 2)
heavy (part 2 of 2): EAGAYWCKAWGLSPCLVT
light: B5 light
modifications: left off: a dimerising Fc or GST
notes: fused protein synergibody SAITAng-2-2 × DTN9VEGFR-2-3, peptide at C-terminal of heavy chain
B9: Syn-Ang-VEGFR-9: fused protein synergibody SAITAng-2-2 × DTN10VEGFR-2-4, peptide at C-terminal of heavy chain (protein)
heavy (part 1 of 2): B5 heavy (part 1 of 2)
heavy (part 2 of 2): TGSGRMCDGSGPPTNCWFT
light: B5 light
modifications: left off: a dimerising Fc or GST
notes: fused protein synergibody SAITAng-2-2 × DTN10VEGFR-2-4, peptide at C-terminal of heavy chain

system: HUVEC; assay: Cell-based functional assay, endothelial cell tube formation (BD BioCoat Angiogenesis System); parameters: species or system human; details: 5 μM fused protein synergibody, 18 hours; unrelated control group 12,227 ± 1,232
Procedure: Chimeric antibodies may be screened by functional assays such as cell-based assay for inhibition activity. In this example, BD BioCoat™ Angiogenesis System-Endothelial Cell Tube Formation (BD Biosciences) is used. BD Falcon 96-well Black/Clear plate coated with BD Matrigel Matrix that had been stored at −20° C. is slowly melted at 4° C. for 6 hours, and the mat cover of the plate is removed inside a sterile clean bench. Then it is left at 37° C. , 5% CO2 for 30 minutes so that the Matrigel™ Matrix would form polymers. Then it is made into a suspension by treating HUVEC, cultured on a petridish containing EGM-2 MV (Lonza) medium added with 10% fetal bovine serum to 70 to 80% confluence, with 0.5% Trypsin-EDTA (Gibco). Then it is resuspended in a culture medium containing 10% fetal bovine serum to a cell concentration of 4×10^5 cells/ml. At this time, 5 μM of each anti-Ang-2 chimeric antibodies expressed and purified in Section 5 above are also added and resuspended. Then 50 μl (about 2×10^4 cells) of each of the suspension is added to each well of the plate and incubated at 37° C. , 5% CO2 for 18 hours. Then the medium is removed and each well is washed twice with 100 μl of Hanks' balanced salt solution (HBSS, Invitrogen) ensuring that the tubes of the cells formed on BD Matrigel™ Matrix are not damaged. 50 μl of calcein AM (BD sciences) dissolved in HBSS at the concentration of 8 μg/ml is added to each well. The plate is then left to react at 37° C., 5% CO2 for 30 minutes and the calcein AM (BD sciences) solution is removed and washed twice with HBSS. Lastly, an image of the length of the entire tube of HUVEC formed on BD Matrigel™ Matrix is obtained on a fluorescent microscope and analyzed by using MetaMorph® software (Universal Imaging Corporation™, http://www.moleculardevices.com).
The peptides synthesized in Section 6A above are screened by cell-based functional assay for inhibition activity. The method described in Example 1, Section 7 is used, except that 5 μM synthesized peptides are added instead of anti-Ang-2 antibodies.
The fused protein synergibodies prepared in Section 1 above are screened using cell-based functional assay for inhibition activity. The method described in Example 1, Section 7 is used, except that, in this example, 5 μM of fused protein synergibodies are added instead of anti-Ang-2 antibodies.

B1 was tested. Which “Length of entire tube of HUVEC (2 × 10^4 cells) (pixels)” value (from here on “Length of entire tube of HUVEC”) did it give?
Its value is 3,925 ± 675 pixels.

For B2, which “Length of entire tube of HUVEC” value is on record?
Its value is 4,183 ± 698 pixels.

How did the “Length of entire tube of HUVEC” value turn out when B3 was run?
The value was 4,216 ± 747 pixels.

With B4 as the molecule, how does the “Length of entire tube of HUVEC” value read?
The value was 3,899 ± 923 pixels.

How did the “Length of entire tube of HUVEC” value turn out when B5 was run?
Its value is 6,157 ± 1,141 pixels.

How did the “Length of entire tube of HUVEC” value turn out when B6 was run?
Its value is 5,898 ± 1,037 pixels.

For B7, which “Length of entire tube of HUVEC” value is on record?
The value was 5,935 ± 995 pixels.

B8 was tested. Which “Length of entire tube of HUVEC” value did it give?
The value was 6,244 ± 935 pixels.

B9 was tested. Which “Length of entire tube of HUVEC” value did it give?
Its value is 6,055 ± 779 pixels.

same assay, conditions: 5 μM synthesized peptide, 18 hours; unrelated control group 12,227 ± 1,232

`CSCC[C@H](NC(=O)[C@@H]1CSSC[C@H](NC(=O)[C@H](CC(C)C)NC(=O)[C@H](CC(=O)O)NC(=O)[C@H](CC(=O)O)NC(=O)[C@H](CO)NC(=O)CNC(=O)[C@@H](N)[C@@H](C)O)C(=O)N[C@@H](Cc2ccc(O)cc2)C(=O)N[C@@H]([C@@H](C)O)C(=O)N[C@@H](Cc2ccccc2)C(=O)N2CCC[C@H]2C(=O)N1)C(=O)N[C@@H](Cc1c[nH]cn1)C(=O)N[C@@H](Cc1ccc(O)cc1)C(=O)O` [DTN6VEGFR-2-1] (H-TGSDDLCYTFPCMHY-OH; disulfide 7-12; N-terminus and C-terminus assumed) was tested. Which “Length of the entire tube of HUVEC (2 × 10^4 cells) (pixels)” value (“Length of the entire tube of HUVEC” for short) did it give?
The value was 11,093 ± 1,308 pixels.

With `CC[C@H](C)[C@@H]1NC(=O)[C@H](Cc2c[nH]c3ccccc23)NC(=O)[C@H](CCC(N)=O)NC(=O)[C@H](Cc2ccc(O)cc2)NC(=O)[C@H](CCCNC(=N)N)NC(=O)[C@H](CCSC)NC(=O)[C@H](CC(N)=O)NC(=O)[C@H](CC(C)C)NC(=O)[C@H](Cc2c[nH]cn2)NC(=O)[C@@H](NC(=O)[C@H](Cc2ccc(O)cc2)NC(=O)CNC(=O)[C@H](CCC(N)=O)NC(=O)[C@H](CO)NC(=O)CNC(=O)[C@@H]2CCCN2)CSSC[C@@H](C(=O)N[C@@H](CC(=O)O)C(=O)N[C@@H](CO)C(=O)N[C@@H](CCC(=O)O)C(=O)O)NC1=O` [DTN11VEGFR-2-5] (H-PGSQGYCHLNMRYQWICDSE-OH; disulfide 7-17; N-terminus and C-terminus assumed) as the molecule, how does the “Length of the entire tube of HUVEC” value read?
Its value is 11,896 ± 1,159 pixels.

For `CC(C)C[C@@H]1NC(=O)CNC(=O)[C@H](Cc2c[nH]c3ccccc23)NC(=O)[C@H](C)NC(=O)[C@H](CCCCN)NC(=O)[C@@H](NC(=O)[C@H](Cc2c[nH]c3ccccc23)NC(=O)[C@H](Cc2ccc(O)cc2)NC(=O)[C@H](C)NC(=O)CNC(=O)[C@H](C)NC(=O)[C@@H](N)CCC(=O)O)CSSC[C@@H](C(=O)N[C@@H](CC(C)C)C(=O)N[C@H](C(=O)N[C@H](C(=O)O)[C@@H](C)O)C(C)C)NC(=O)[C@@H]2CCCN2C(=O)[C@H](CO)NC1=O` [DTN9VEGFR-2-3] (H-EAGAYWCKAWGLSPCLVT-OH; disulfide 7-15; N-terminus and C-terminus assumed), which “Length of the entire tube of HUVEC” value is on record?
Its value is 12,101 ± 869 pixels.

For `C[C@H](NC(=O)[C@@H](N)CCC(=O)O)C(=O)NCC(=O)N[C@@H](CCCCN)C(=O)N[C@@H](CCC(=O)O)C(=O)N[C@H](C(=O)N[C@H]1CSSC[C@@H](C(=O)N2CCC[C@H]2C(=O)N[C@@H](CCCNC(=N)N)C(=O)N2CCC[C@H]2C(=O)O)NC(=O)[C@H](Cc2ccc(O)cc2)NC(=O)[C@H](CCC(N)=O)NC(=O)[C@H](Cc2c[nH]c3ccccc23)NC(=O)[C@H](CCC(=O)O)NC(=O)[C@H](Cc2ccc(O)cc2)NC(=O)CNC1=O)[C@@H](C)O` [DTN8VEGFR-2-2] (H-EAGKETCGYEWQYCPRP-OH; disulfide 7-14; N-terminus and C-terminus assumed), which “Length of the entire tube of HUVEC” value is on record?
The value was 10,891 ± 1,014 pixels.

For `CSCC[C@H](NC(=O)[C@H](CCCNC(=N)N)NC(=O)CNC(=O)[C@H](CO)NC(=O)CNC(=O)[C@@H](N)[C@@H](C)O)C(=O)N[C@H]1CSSC[C@@H](C(=O)N[C@@H](Cc2c[nH]c3ccccc23)C(=O)N[C@@H](Cc2ccccc2)C(=O)N[C@H](C(=O)O)[C@@H](C)O)NC(=O)[C@H](CC(N)=O)NC(=O)[C@H]([C@@H](C)O)NC(=O)[C@@H]2CCCN2C(=O)[C@@H]2CCCN2C(=O)CNC(=O)[C@H](CO)NC(=O)CNC(=O)[C@H](CC(=O)O)NC1=O` [DTN10VEGFR-2-4] (H-TGSGRMCDGSGPPTNCWFT-OH; disulfide 7-16; N-terminus and C-terminus assumed), which “Length of the entire tube of HUVEC” value is on record?
The value was 10,773 ± 992 pixels.
